Measured values published in US6949366 (Amgen, dated 2005).

Tests used:
[1] = target: T1, soluble rat elk/Fc fusion protein (rat; human, UniProt P09759 18-540; P01857 99-330 = IgG part, limits assumed); test: indirect Scatchard binding: elk/Fc titrated on CV1-EBNA-1 cells expressing hek-L A2, detected with 125I mouse anti-human IgG; biphasic, second component
T1 construct: extracellular domain;domain: Fc region; The junction between elk and Fc is not described

[2] = target: T1, soluble rat elk/Fc fusion protein; test: indirect Scatchard binding: elk/Fc titrated on CV1-EBNA-1 cells expressing hek-L A2, detected with 125I mouse anti-human IgG; biphasic, first component
[3] = target: T1, soluble rat elk/Fc fusion protein; test: indirect Scatchard binding: elk/Fc titrated on CV1-EBNA-1 cells expressing elk-L, detected with 125I mouse anti-human IgG
[4] = target: T1, soluble rat elk/Fc fusion protein; test: indirect Scatchard binding: elk/Fc titrated on CV1-EBNA-1 cells expressing B61; biphasic, first component as the text prints it (differs from the table's cell)
[5] = target: T1, soluble rat elk/Fc fusion protein; test: indirect Scatchard binding: elk/Fc titrated on CV1-EBNA-1 cells expressing B61, detected with 125I mouse anti-human IgG; biphasic, second component
[6] = target: T1, soluble rat elk/Fc fusion protein; test: indirect Scatchard binding: elk/Fc titrated on CV1-EBNA-1 cells expressing B61, detected with 125I mouse anti-human IgG; biphasic, first component (the cell prints 23, the text at paragraph 137 prints 2.3)
[7] = target: T1, soluble rat elk/Fc fusion protein; test: indirect Scatchard binding: elk/Fc titrated on CV1-EBNA-1 cells expressing hek-L C6, detected with 125I mouse anti-human IgG; biphasic, second component
[8] = target: T1, soluble rat elk/Fc fusion protein; test: indirect Scatchard binding: elk/Fc titrated on CV1-EBNA-1 cells expressing hek-L C6, detected with 125I mouse anti-human IgG; biphasic, first component

T1 sequence (P09759 other isoform, or with tags, fused parts or gaps limits assumed): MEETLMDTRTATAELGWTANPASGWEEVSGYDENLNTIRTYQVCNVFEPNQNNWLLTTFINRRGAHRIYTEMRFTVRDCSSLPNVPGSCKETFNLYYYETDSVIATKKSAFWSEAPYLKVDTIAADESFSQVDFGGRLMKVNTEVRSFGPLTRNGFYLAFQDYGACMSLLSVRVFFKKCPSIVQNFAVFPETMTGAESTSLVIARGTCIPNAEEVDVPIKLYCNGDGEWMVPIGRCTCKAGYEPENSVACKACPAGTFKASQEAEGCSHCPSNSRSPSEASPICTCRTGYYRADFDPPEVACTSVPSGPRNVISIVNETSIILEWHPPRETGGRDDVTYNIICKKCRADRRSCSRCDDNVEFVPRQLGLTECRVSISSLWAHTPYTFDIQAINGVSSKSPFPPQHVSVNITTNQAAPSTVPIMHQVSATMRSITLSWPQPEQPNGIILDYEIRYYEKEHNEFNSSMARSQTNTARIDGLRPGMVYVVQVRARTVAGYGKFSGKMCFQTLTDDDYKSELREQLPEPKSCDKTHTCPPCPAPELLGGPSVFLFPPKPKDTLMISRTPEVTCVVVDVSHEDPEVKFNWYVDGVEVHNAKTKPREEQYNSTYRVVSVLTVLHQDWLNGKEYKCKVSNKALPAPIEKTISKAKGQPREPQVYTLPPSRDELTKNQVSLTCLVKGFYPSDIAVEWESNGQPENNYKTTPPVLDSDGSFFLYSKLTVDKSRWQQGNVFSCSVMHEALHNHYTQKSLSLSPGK

B1: human hek ligand encoded by clone A2 (ligand)
chain: LLAQGPGGALGNRHAVYWNSSNQHLRREGYTVQVNVNDYLDIYCPHYNSSGVGPGAGPGPGGGAEQYVLYMVSRNGYRTCNASQGFKRWECNRPHAPHSPIKFSEKFQRYSAFSLGYEFHAGHEYYYISTPTHNLHWKCLRMKVFVCCASTSHSGEKPVPTLPQFTMGPNVKINVLEDFEGENPQVPKLEKSIS
modifications: GPI anchor at the C-terminus after cleavage (likely on Ser 194 in the filing's numbering; site not determined)
notes: Expressed from the full-length clone A2 cDNA in pDC410 on CV1-EBNA-1 cells and held on the membrane by a GPI anchor; also called hek-L A2; hek ligand A2
B1 was tested, and the Ka [1] was 3.5e+07 M⁻¹ and the Ka [2] was 2.7e+08 M⁻¹.

B2: human elk ligand (ligand, UniProt P98172 28-346, looked up)
chain: LAKNLEPVSWSSLNPKFLSGKGLVIYPKIGDKLDIICPRAEAGRPYEYYKLYLVRPEQAAACSTVLDPNVLVTCNRPEQEIRFTIKFQEFSPNYMGLEFKKHHDYYITSTSNGSLEGLENREGGVCRTRTMKIIMKVGQDPNAVTPEQLTTSRPSKEADNTVKMATQAPGSRGSLGDSDGKHETVNQEEKSGPGASGGSSGDPDGFFNSKVALFAAVGAGCVIFLLIIIFLTVLLLKLRKRHRKHTQQRAAALSLSTLASPKGGSGTAGTEPSDIIIPLRTTENNYCPHYEKVSGDYGHPVYIVQEMPPQSPANIYYKV
notes: whole, on cells
In the case of B2, the Ka [3] is reported as 1.08e+09 M⁻¹.

B3: human B61 (ligand, UniProt P20827 19-182, looked up)
chain: DRHTVFWNSSNPKFRNEDYTIHVQLNDYVDIICPHYEDHSVADAAMEQYILYLVEHEEYQLCQPQSKDQVRWQCNRPSAKHGPEKLSEKFQRFTPFTLGKEFKEGHSYYYISKPIHQHEDRCLRLKVTVSGKITHSPQAHDNPQEKRLAADDPEVRVLHSIGHS
notes: whole, on cells
In the case of B3, the Ka [4] is reported as 2.3e+08 M⁻¹, the Ka [5] is reported as 7e+07 M⁻¹ and the Ka [6] is reported as 2.3e+09 M⁻¹.

B4: human hek ligand encoded by clone C6 (ligand)
chain: GSSLRHVVYWNSSNPRLLRGDAVVELGLNDYLDIVCPHYEGPGPPEGPETFALYMVDWPGYESCQAEGPRAYKRWVCSLPFGHVQFSEKIQRFTPFSLGFEFLPGETYYYISVPTPESSGQCLRLQVSVCCKERKSESAHPVGSPGES
modifications: GPI anchor at the C-terminus after cleavage (likely on Ser 148 in the filing's numbering; site not determined)
notes: Expressed from the full-length clone C6 cDNA in pDC410 on CV1-EBNA-1 cells and held on the membrane by a GPI anchor; also called hek-L C6; hek ligand C6
Work on B4 yielded a Ka [7] of 5.4e+07 M⁻¹ and a Ka [8] of 1.3e+08 M⁻¹.
